From publication PMC8092277, “Cytoplasmic CPSF6 Regulates HIV-1 Capsid Trafficking and Infection in a Cyclophilin A-Dependent Manner” (mBio, 2021)

Target: the molecule itself
Assay: negative-stain TEM; MBP-CPSF6 P1 or P2 alone, incubated in CA assembly buffer

B1: MBP-His6-CPSF6-588 (natural protein, UniProt Q16630-2 1-588, looked up)
chain: MADGVDHIDIYADVGEEFNQEAEYGGHDQIDLYDDVISPSANNGDAPEDRDYMDTLPPTVGDDVGKGAAPNVVYTYTGKRIALYIGNLTWWTTDEDLTEAVHSLGVNDILEIKFFENRANGQSKGFALVGVGSEASSKKLMDLLPKRELHGQNPVVTPCNKQFLSQFEMQSRKTTQSGQMSGEGKAGPPGGSSRAAFPQGGRGRGRFPGAVPGGDRFPGPAGPGGPPPPFPGNLIKHLVKGTRPLFLETRIPWHMGHSIEEIPIFGLKAGQTPPRPPLGPPGPPGPPGPPPPGQVLPPPLAGPPNRGDRPPPPVLFPGQPFGQPPLGPLPPGPPPPVPGYGPPPGPPPPQQGPPPPPGPFPPRPPGPLGPPLTLAPPPHLPGPPPGAPPPAPHVNPAFFPPPTNSGMPTSDSRGPPPTDPYGRPPPYDRGDYGPPGREMDTARTPLSEAEFEEIMNRNRAISSSAISRAVSDASAGDYGSAIETLVTAISLIKQSKVSADDRCKVLISSLQDCLHGIESKSYGSGSRRERSRERDHSRSREKSRRHKSRSRDRHDDYYRERSRERERHRDRDRDRDRERDREREYRHR
notes: cleavage and polyadenylation specificity factor 6 (CPSF6), the isoform of 588 residues, full length; Order: MBP, His6, CPSF6; An HRV-3C site allows removal of MBP, but the cleaved protein precipitated, so the tagged protein was used; Size exclusion gave two peaks of the same construct, P1 and P2, which are kept here as one molecule; also called MBP-CPSF6; full-length CPSF6; source: Expi 293F …
- binding result: binds
